Data from patent US6833192B1, “Encapsulation of crystals via multilayer coatings” (Max-Planck Gesellschaft Zur Forderrung der Wissenschaften …, priority 1999, dated 2004).

How the values were obtained:
[1] = Determination of catalase activity (decomposition of H2O2 at 240 nm); type: biochemical; conditions: after solubilization and release from the polymer capsules; uncoated catalase measured the same way for comparison
Protocol: The enzyme was released from the polymer capsules by exposure to ultrasound for 5 min at 20° C. in 1 M phosphate buffer at pH 7 (this caused rupturing of the polymer walls). The catalase activity was determined using a standard enzyme activity assay (Biochemica Information, 15-16 Boehringer Mannheim (1987); Tijsen, Practice and Theory of Enzyme Immunoassays, 8th Impression (1993), Elsevier, 202-203): that is, by measuring the decomposition of the substrate hydrogen peroxide (H2O2) at 240 nm. The concentration of the catalase was determined spectrophotometrically at 280 nm and 405 nm (soret band). The specific acitvity of the uncoated catalase was measured in the same way and used for comparison.

[2] = Electrophoretic mobility / Zeta-potential measurement; type: physicochemical; conditions: water at pH 5; by electrophoretic mobility
Protocol: Electrophoretic mobilities of the uncoated and polymer-multilayer coated enzyme crystals were measured using a Malvern Zetasizer 4 as described elsewhere (Caruso et al., J. Phys. Chem. B 102, 2011-2116 (1998); Sukhorukov, G. B. et al., Polym. Adv. Technol. 9, 759-767 (1998); Donath et al., Angew. Chem. Int. Ed. 37, 2201-2205 (1998). The mobility u was converted into a ξ-potential using the Smoluchowski relation ξ=uη/ε, where η and ε are the viscosity and permittivity of the solution, respectively. Atomic force microscopy (AFM) images were obtained using a Digital Instruments Nanoscope IIIa AFM in tapping mode (TM) on samples deposited onto cleaned glass slides and air-dried. Samples for transmission electron microscopy (TEM) were prepared by deposition of aqueous solutions of the hollow polymer capsules upon a carbon-coated copper grid, allowing them to air dry for one minute, and then blotting off the extra solution.

[3] = system: protease (Streptomyces griseus); experiment: Proteolysis experiment (decrease in catalase enzyme activity on protease incubation); type: biochemical; conditions: incubation time of 100 min, 37° C., pH 7; starting activity normalized to 100%
Protocol: 10 mg of protease (Streptomyces griseus; Sigma P6911; activity=5.2 U/mg solid) was dissolved in 500 μl of phosphate buffered saline (PBS, pH 7.0)(100 U/ml) and used as the stock solution. 200 μl samples of the polyelectrolyte-coated catalase and solubilized catalase where separately incubated in a water bath at 37° C. with either 30 μl of the stock protease solution of 30 μl of PBS (control experiment). The starting activity of the catalase for all samples was approximately 12000 U/ml catalase. The starting activities were normalized to 100%. The final protease activity in the sample was […]. Proteolysis of the catalase was determined by measuring the decrease in the catalase enzyme activity. The catalase activity measurements where carried out according to the previously described method (i.e. by spectrophotometric detection (240 nm) of the decomposition of hydrogen peroxide, see Tijsen, Practice and Theory of Enzyme Immunoassays, Elsevier, 8th Impression (1993), pp. 202-203.15). 5 μl samples were diluted and used for the activity measurements.

B1: catalase (protein, UniProt P00432 2-527, looked up)
Catalase: ADNRDPASDQMKHWKEQRAAQKPDVLTTGGGNPVGDKLNSLTVGPRGPLLVQDVVFTDEMAHFDRERIPERVVHAKGAGAFGYFEVTHDITRYSKAKVFEHIGKRTPIAVRFSTVAGESGSADTVRDPRGFAVKFYTEDGNWDLVGNNTPIFFIRDALLFPSFIHSQKRNPQTHLKDPDMVWDFWSLRPESLHQVSFLFSDRGIPDGHRHMNGYGSHTFKLVNANGEAVYCKFHYKTDQGIKNLSVEDAARLAHEDPDYGLRDLFNAIATGNYPSWTLYIQVMTFSEAEIFPFNPFDLTKVWPHGDYPLIPVGKLVLNRNPVNYFAEVEQLAFDPSNMPPGIEPSPDKMLQGRLFAYPDTHRHRLGPNYLQIPVNCPYRARVANYQRDGPMCMMDNQGGAPNYYPNSFSAPEHQPSALEHRTHFSGDVQRFNSANDDNVTQVRTFYLKVLNEEQRKRLCENIAGHLKDAQLFIQKKAVKNFSDVHPEYGSRIQALLDKYNEEKPKNAVHTYVQHGSHLSAREKANL
modifications: crystals
notes: catalase enzyme crystals (Sigma, C-100), uncoated template and comparison
[1]
  recovered specific activity: 100%
[2]
  Zeta potential (surface charge): +20 mV
[3]
  inactivation by protease: > 90%
